According to patent publication US8030017B2, “Thermostable luciferases and methods of production” (Promega Corporation, priority 1997, dated 2011):

What was measured:
[1] = Robotic quantitative screen of E. coli lysates: luminescence activity (Li), expression/specific activity; format: biochemical; settings: relative value; Control is Luc85-4F12 at 65° C. (=1)
[2] = Robotic quantitative screen of E. coli lysates: enzyme stability (tau) at elevated temperature; format: physicochemical; settings: relative value; Control is Luc85-4F12 at 65° C. (=1)

B1: Luc90-1B5: mutant luciferase, SEQ ID NO:24 (protein)
chain: MADKNILYGPEPFYPLEDGTAGEQMFDALSRYADIPGCIALTNAHTKENVLYEEFLKLSCRLAESFKKYGLKQNDTIAVCSENGLQFFLPVIASLYLGIIVAPVNDKYIERELIHSLGIVKPRIVFCSKNTFQKVLNVKSKLKSIETIIILDLNEDLGGYQCLNNFISQNSDSNLDVKKFKPYSFNRDDQVALIMFSSGTTGLPKGVMLTHKNIVARFSLAKDPTFGNAINPTTAILTVIPFHHGFGMMTTLGYFTCGFRVVLMHTFEEKLFLQSLQDYKVESTLLVPTLMAFLAKSALVEKYDLSHLKEIASGGAPLSKEIGEMVKKRFKLNFVRQGYGLTETTSAVLITPKGDAKPGSTGKIVPFHAVKVVDPTTGKILGPNEPGELYFKGPMIMKGYYNNEEATKAIIDNDGWLRSGDIAYYDNDGHFYIVDRLKSLIKYKGYQVAPAEIEGILLQHPYIVDAGVTGIPDEAAGELPAAGVVVQTGKYLNEQIVQDYVASQVSTAKWLRGGVKFLDEIPKGSTGKIDRKVLRQMFEKHTNG
modifications: Mutant luciferase
Luminescence (Li) [1]: 1.4743 | Enzyme stability (tau) [2]: 1.1154
